Test results published in patent US6028055A, “Receptor selective BNP” (Genetech, Inc., priority 1997, dated 2000).

Assays:
NPR-C = target: T1, NPR-C (Homo sapiens, UniProt P17342); test: Measurement of binding affinities for NPR-C, membranes from stable 293 cell lines, 125I rat ANP displacement; set-up: unit not given here; settings: pure synthetic peptide vs 30 pM 125I rat ANP, 2 hours room temperature; duplicate points, three separate assays
T1 construct: expressed in transfected cells
T1 sequence (P17342 27-541): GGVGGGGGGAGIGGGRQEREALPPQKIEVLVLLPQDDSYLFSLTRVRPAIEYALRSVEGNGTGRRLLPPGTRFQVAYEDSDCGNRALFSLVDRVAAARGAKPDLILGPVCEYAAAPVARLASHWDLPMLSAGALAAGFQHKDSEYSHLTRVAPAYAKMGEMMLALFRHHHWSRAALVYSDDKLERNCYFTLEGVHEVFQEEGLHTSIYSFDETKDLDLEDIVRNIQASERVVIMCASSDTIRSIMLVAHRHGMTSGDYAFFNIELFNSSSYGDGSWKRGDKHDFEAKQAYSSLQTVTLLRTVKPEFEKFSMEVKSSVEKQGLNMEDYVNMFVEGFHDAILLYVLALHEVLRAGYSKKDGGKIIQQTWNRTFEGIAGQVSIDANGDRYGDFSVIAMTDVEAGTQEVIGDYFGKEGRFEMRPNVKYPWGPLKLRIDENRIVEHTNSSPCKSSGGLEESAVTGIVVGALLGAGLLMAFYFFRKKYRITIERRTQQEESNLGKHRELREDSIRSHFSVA
Experimental: (§1) Membrane Preparation Membranes from stable 293 cell lines expressing NPR-A (Lowe and Fendly (1992) J. Biol. Chem.) or NPR-C (Cunningham et al. (1994) supra) were prepared by removing the cells from tissue culture plates with 0.5MM EDTA in PBS, centrifuging at 225×g, 4° C., and resuspending in 50 mM Hepes Ph7.4, 1 mM EDTA, 1 mM DTT, 250 mM Sucrose, 0.7 μg/ml Pepstatin A, 0.5 μg/ml Leupeptin, 1 mM PMSF, 1 μM Phosphoramidon. The resuspended cells were homogenized for 30 seconds with a Brinkman polytron on setting 5. The homogenate was centrifuged in 30 ml corex tubes in Sorval HB-4 rotor at 400×(1500 rpm) for 10 minutes at 4° C. The supernatant was centrifuged again in screw cap polycarbonate tubes (Beckman 355618) at 100,000×g (31,500 rpm) for 30 minutes, 4° C. in a Beckman TI60 rotor. The pellet was resuspended in 50 mM Hepes, 0.1 mM EDTA, 5.0 mM MgCl2, 100 mM NaCl, 0.7μg/ml Pepstatin A, 0.5 μg/ml Leupeptin, 1 mM PMSF, 1 μM Phosphoramidon and homogenized again with 15 strokes in a Dounce homogenizer (Wheaton 7 ml, #357542). The membranes were passed through a 22 gauge needle several times before aliquoting into eppendorf tubes for storage at -80° C.
(§2) The binding was allowed to go for 2 hours at room temperature in 96 well U-bottomed microtiter polypropylene plates (Sigma M-4029) with gentle agitation. The bound hormone was separated from the free using a Packard Filtermate 196 cell harvester and 1% polyethyleneimine-saturated Packard unifilter-96 GF/B plates by vacuum filtration. The plates were dried under vacuum chamber for 10 minutes prior to adding 40 μl Microscint-20 scintillant and counting in a Packard Topcount scintillation counter. Each affinity represents points measured in duplicate within three separate assays.

NPR-A = target: T2, NPR-A (Homo sapiens, UniProt P16066); test: Measurement of binding affinities for NPR-A, membranes from stable 293 cell lines, 125I rat ANP displacement; settings: pure synthetic peptide vs 30 pM 125I rat ANP, 2 hours room temperature; duplicate points, three separate assays
T2 construct: expressed in transfected cells
T2 sequence (P16066 33-1061): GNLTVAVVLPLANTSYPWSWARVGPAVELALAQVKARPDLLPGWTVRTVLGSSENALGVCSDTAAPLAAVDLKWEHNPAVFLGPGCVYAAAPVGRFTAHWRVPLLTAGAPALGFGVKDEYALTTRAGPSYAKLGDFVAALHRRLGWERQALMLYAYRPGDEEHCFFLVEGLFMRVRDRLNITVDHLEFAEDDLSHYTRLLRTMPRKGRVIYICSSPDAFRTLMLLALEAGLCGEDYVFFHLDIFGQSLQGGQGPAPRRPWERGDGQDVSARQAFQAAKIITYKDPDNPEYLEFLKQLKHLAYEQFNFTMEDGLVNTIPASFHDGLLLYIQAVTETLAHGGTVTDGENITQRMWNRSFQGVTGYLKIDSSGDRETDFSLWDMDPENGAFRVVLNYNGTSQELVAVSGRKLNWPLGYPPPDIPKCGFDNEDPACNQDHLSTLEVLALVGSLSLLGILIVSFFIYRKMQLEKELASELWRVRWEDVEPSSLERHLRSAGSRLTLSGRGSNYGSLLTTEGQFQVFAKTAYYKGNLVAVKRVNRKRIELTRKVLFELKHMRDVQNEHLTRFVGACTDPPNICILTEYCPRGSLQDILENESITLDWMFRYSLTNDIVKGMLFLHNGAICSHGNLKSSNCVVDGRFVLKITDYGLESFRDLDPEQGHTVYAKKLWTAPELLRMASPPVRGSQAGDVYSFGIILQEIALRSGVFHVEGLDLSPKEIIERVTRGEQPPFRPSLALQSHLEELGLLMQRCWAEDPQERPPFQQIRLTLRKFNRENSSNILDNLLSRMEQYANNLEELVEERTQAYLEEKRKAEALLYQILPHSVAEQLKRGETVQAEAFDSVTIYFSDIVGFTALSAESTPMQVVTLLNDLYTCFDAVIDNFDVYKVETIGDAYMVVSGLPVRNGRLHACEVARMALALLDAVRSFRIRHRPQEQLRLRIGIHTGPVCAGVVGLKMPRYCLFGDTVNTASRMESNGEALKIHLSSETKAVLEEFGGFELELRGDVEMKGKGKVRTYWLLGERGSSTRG
Experimental: as §1, §2

[1] = target: T3, NPR-C expressed in stable 293 cell lines (membranes) (human) (UniProt P17342); test: competition with 30 pM 125I-rat ANP on membranes of 293 cells expressing NPR-C; unit not given
T3 sequence: T1 sequence (P17342 27-541)

[2] = target: human natriuretic peptide receptor-A expressed in 293 cells (human) (UniProt P16066); test: competition with 30 pM 125I-rat ANP on membranes of 293 cells expressing NPR-A; unit not given
[3] = target: T4, NPR-C expressed in stable 293 cell lines (membranes) (human, UniProt P17342); test: competition with 30 pM 125I-rat ANP on membranes of 293 cells expressing NPR-C; unit not given
T4 sequence: T1 sequence (P17342 27-541)
Experimental: as §1, with “µg/ml” for “μg/ml”, “µM” for “μM”, “MgCl_2,” for “MgCl2,”, “0.7µg/ml” for “0.7μg/ml”, “−80°” for “-80°”
as §2, with “µl” for “μl”

[4] = target: human natriuretic peptide receptor-A expressed in 293 cells (human, UniProt P16066); test: competition with 30 pM 125I-rat ANP on membranes of 293 cells expressing NPR-A; unit not given
Experimental: as §1, with “µg/ml” for “μg/ml”, “µM” for “μM”, “MgCl_2,” for “MgCl2,”, “0.7µg/ml” for “0.7μg/ml”, “−80°” for “-80°”
as §2, with “µl” for “μl”

hBNP Ser19Arg (SEQ ID NO: 4) (peptide), sequence (peptide): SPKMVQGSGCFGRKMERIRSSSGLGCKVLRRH

Molecule | NPR-C binding affinity (Assay #1) (NPR-C) | NPR-A binding affinity (Assay #1) (NPR-A) | affinity (NPR-C) [1] | affinity (NPR-A) [2] | affinity (NPR-C) [3] | affinity (NPR-A) [4]
hBNP Gly23Phe, Leu24Trp, Gly25Arg (SPKMVQGSGCFGRKMERISSSSFWRCKVLRRH) | 9363 ± 2067 | 378 ± 136 | – | – | – | –
hBNP Ser19Arg (SEQ ID NO: 4) (peptide) | – | – | 95500 | 155 | – | –
hBNP Ser19Arg | 95,498 ± 14,603 | 155 ± 55.3 | – | – | – | –
hBNP Gly23Phe, Leu24Trp, Gly25Arg (SEQ ID NO: 2) (peptide) | – | – | 9360 | 378 | – | –
hBNP Ser19Arg Gly23Phe, Leu24Trp, Gly25Arg (SPKMVQGSGCFGRKMERIRSSSFWRCKVLRRH) | 172,400 ± 120,096 | 287 ± 27 | – | – | – | –
SPKMVQGSGCFGRKMERIRSSSFWRCKVLRRH [hBNP Ser19Arg, Gly23Phe, Leu24Trp, Gly25Arg (SEQ ID NO: 7)] | – | – | 172000 | 287 | – | –
SPKMVQGSGCFGGRMDRIRSSSGLGCKVLRRH [hBNP Arg13Gly, Lys14Arg, Ser19Arg (SEQ ID NO:49)] | – | – | – | – | 28400 | 518
SLRRSSCFGGRIDRIGAQSFWRCNSFRY [hANP Net12Ile, Gly20Phe, Leu21Trp, Gly22Arg (SEQ ID NO:50)] | – | – | – | – | 295 | 507
SLRRSSCFGGRIDRIRAQSGLGCNSFRY [hANP Gly16Arg (SEQ ID NO: 52)] | – | – | – | – | 10600 | 17.2
SLRRSSCFGGRIDRIGAQSGLGCNSFRY [hANP (SEQ ID NO: 51)] | – | – | – | – | 198 | 43.5
